The results in this text go back to the RNAGym collection of RNA variant scans (doi:10.1093/molbev/msab373).

To fix the notation:
B1: Azoarcus group I ribozyme (parent)
chain: GUGCCUUGCGCCGGGAAACCACGCAAGGGAUGGUGUCAAAUUCGGCGAAACCUAAGCGCCCGCCCGGGCGUAUGGCAACGCCGAGCCAAGCUUCGGCGCCUGCGCCGAUGAAGGUGUAGAGACUAGACGGCACCCACCUAAGGCAAACGCUAUGGUGAAGGCAUAGUCCAGGGAGUGGCGAAAGUCACACAAACCGG

This series covers variants of B1. Put plainly: reverse-splicing fitness (ratio to wild type); higher = more active; in vitro selection; Mg2+ level not given. An outline of the steps:
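An in vitro group I ribozyme library with randomized positions was T7-transcribed and gel-purified. In triplicate, 10 pmol RNA in EPPS pH 7.5 was reacted with 50 pmoles of a 30-nt RNA substrate for 1 h at 37 °C across several added MgCl2 levels (1–48 mM), then stopped with EDTA. Products were reverse transcribed from a substrate-complementary primer, PCR-amplified and sequenced (HiSeq 4000). Fitness is a variant's read proportion after selection over that before, normalised to wild type.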
Consider A145C C150A C169A, for which the reverse-splicing fitness came to 0.0125.
In the case of C82U A111C A120G A145G C150U C169G, the reverse-splicing fitness stood at 0.00984.
As to C82A A111G A120G C169U U176G, the reverse-splicing fitness amounted to 0.00531.
As for A145G C150G C169A U176G, the figure is 0.00779; as for C82A A120U A145G C150G U176C, 0.0117; as for A111U A120U A145G C150U C169U U176G, 0.00291.
In the case of C82U A111C A120C A145C C169A U176A it was 0.0111.
In the case of C82U A120G A145G C150A it was 0.00966; in that of A111U A145G C150A, 0.516.
As to C82U A120G A145U C150U C169G U176A, the reverse-splicing fitness was determined as 0.0116.
Regarding A120U A145U C150G, the reverse-splicing fitness was found to be 0.267.
Regarding C82U A111C A145C C169U, the reverse-splicing fitness came to 0.0113.
As for C82U A111C A145C C169U U176G, the figure is 0.00632; as for C82U A111C A120G A145U C150A C169U U176G, 0.00435; as for C82U A111U A120G A145C C150G, 0.00668.
For the variant A111G A120U C150U, the reverse-splicing fitness stood at 0.538.
In the case of C82A A111C A120C A145C C150U C169U U176C, the reverse-splicing fitness came to 0.0105.
As for C82A A111C A120C A145C C150U C169G U176G, the figure is 0.00659; as for C82A A120U C150A C169A U176G, 0.0024.
In the case of C82G A111G A145G U176G it was 0.0821.
With A111C A120U A145U C150U U176A, the reverse-splicing fitness was 0.182.
As for C82G A111U A145C C150U C169A U176G, the figure is 0.00702; as for C82U A111U A120C C169U U176C, 0.0164; as for C82G A120C A145C C150A C169G, 0.00715.
In the case of C82U A111G A120G A145U C150A U176C, the reverse-splicing fitness stood at 0.013.
Turning to C82A A111C A120U A145U C150U C169U, the reverse-splicing fitness stood at 0.00409.
In the case of C82A A120G A145G C150U C169A U176A it was 0.016.
In the case of C82U A111U A120U A145G C169U U176G it was 0.00207; in that of A111C A120U A145C C169U, 0.0701; in that of C82A A111C C150U C169A U176C, 0.0125.
In the case of C82A A111G A145G C150A C169U U176C it was 0.0164; in that of A111G A120U C150G C169A U176C, 0.00366; in that of C82U A111C A120C A145G C150U C169G, 0.00807.
Regarding C82A A111U A120G A145U C169A U176C, the reverse-splicing fitness was determined as 0.0107.
As for C82G A111G A145C C150A C169U, the figure is 0.0097; as for C82G A145G C150A C169G U176C, 0.0286.
Consider A111U A145U C150G C169G U176A, for which the reverse-splicing fitness was determined as 0.00711.
For C82U A111U C150U C169A, the reverse-splicing fitness came to 0.00856.
In the case of C82A A111C A145G C169U U176A it was 0.0177.
With C82U A145G C150A C169U U176G, the reverse-splicing fitness came out at 0.00508.
As for A111G A120G A145U C169U, the reverse-splicing fitness was 0.232.
In the case of C82U A111G A120U A145C C169G U176C it was 0.0021.
As to C82G A111G A120G A145U C150U C169U U176C, the reverse-splicing fitness was 0.0182.
Turning to C82U A145C C150U C169A, the reverse-splicing fitness is 0.00695.
As for C82A A111C C150A U176G, the figure is 0.0104.
In the case of C82G A111G A120G C150A U176C it was 0.023; in that of A111G A120C A145U C150U C169G U176G, 0.00446; in that of C82G A111C A145G C150A C169A U176A, 0.0179.
Take C82U A120U C169A: the reverse-splicing fitness was 0.00227.
As for C82U A111C C150A C169G U176A, the figure is 0.0162; as for C82G A111G A145C U176A, 0.267; as for C82A A111C A120U C150G, 0.00737.
In the case of A111G A120U A145G C150G C169A U176G it was 0.00395.
In the case of A111C A120G A145C C150A C169A U176A, the reverse-splicing fitness stood at 0.0112.
In the case of C82U A111U A120C A145U C150A U176G it was 0.0048; in that of C82G A111U A120C A145U C150U C169G U176C, 0.0194.
In the case of C82G A111G A120C A145G C150G C169U it was 0.00987; in that of C82A A111G A120G A145C C150G C169G U176A, 0.00955.
In the case of C82A A111C A120G A145C C150A U176G it was 0.00559.
With A120G A145U C150G C169G, the reverse-splicing fitness worked out at 0.0994.
For the variant C82G A111G A120G A145U C150A C169A, the reverse-splicing fitness is 0.0096.
In the case of C82A A111C A120C A145C C150G U176G it was 0.0029; in that of C82A A120U A145U C169U U176A, 0.00202.
As for C82A A111C A145G C169G, the figure is 0.00878.
As to C82G A111G A120G A145G C169A U176G, the reverse-splicing fitness is 0.00443.
As for C82G A120C A145C, the figure is 0.201.
A111U A120G A145U U176A: the reverse-splicing fitness turned out to be 0.0396.
In the case of C82U A111G A120G A145G C150A C169G U176G, the reverse-splicing fitness amounted to 0.00482.
In the case of C82A A111G A120C A145U C150A U176G it was 0.00739; in that of C82G A111G A120G C150A C169U U176C, 0.0176; in that of C82A A111G A120G A145C U176A, 0.0113.
In the case of A111C A120U A145C U176G it was 0.0856; in that of C82A A111C A120U C150U C169U U176G, 0.0027.
In the case of C82G A111C A120C A145C C150U U176A it was 0.0114; in that of C82A A111C A145G C150A U176C, 0.0335; in that of C82U A111G C169G U176A, 0.0159.
Consider A120C A145C C169A U176C, for which the reverse-splicing fitness is 0.00838.
As for C82A A111G A145C C169U U176A, the figure is 0.013; as for C82U A111U A120C C169G U176C, 0.018; as for C82A A120G C169U U176G, 0.00475.
With C82U A111G A120C A145U C169U, the reverse-splicing fitness was determined as 0.0104.
As for C82G A111G C150A C169U U176A, the figure is 0.0165; as for C82U A120U A145U C169G, 0.00533.
